PMC5334656, “McMYB12 Transcription Factors Co-regulate Proanthocyanidin and Anthocyanin Biosynthesis in Malus Crabapple”

T1: McMYB12a (Malus crabapple, UniProt X2EXK4 1-364)
T1 sequence: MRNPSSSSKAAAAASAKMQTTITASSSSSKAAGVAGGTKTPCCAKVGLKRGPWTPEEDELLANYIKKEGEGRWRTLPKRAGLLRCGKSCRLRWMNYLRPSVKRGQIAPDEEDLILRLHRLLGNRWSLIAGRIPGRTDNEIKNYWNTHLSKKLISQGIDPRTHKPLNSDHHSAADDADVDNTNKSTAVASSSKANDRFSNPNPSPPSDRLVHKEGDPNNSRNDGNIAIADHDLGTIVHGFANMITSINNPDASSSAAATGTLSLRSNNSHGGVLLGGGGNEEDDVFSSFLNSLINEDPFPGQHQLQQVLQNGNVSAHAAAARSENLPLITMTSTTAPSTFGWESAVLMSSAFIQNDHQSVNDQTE

T2: McMYB12b (Malus crabapple, UniProt X2EZI4 1-374)
T2 sequence: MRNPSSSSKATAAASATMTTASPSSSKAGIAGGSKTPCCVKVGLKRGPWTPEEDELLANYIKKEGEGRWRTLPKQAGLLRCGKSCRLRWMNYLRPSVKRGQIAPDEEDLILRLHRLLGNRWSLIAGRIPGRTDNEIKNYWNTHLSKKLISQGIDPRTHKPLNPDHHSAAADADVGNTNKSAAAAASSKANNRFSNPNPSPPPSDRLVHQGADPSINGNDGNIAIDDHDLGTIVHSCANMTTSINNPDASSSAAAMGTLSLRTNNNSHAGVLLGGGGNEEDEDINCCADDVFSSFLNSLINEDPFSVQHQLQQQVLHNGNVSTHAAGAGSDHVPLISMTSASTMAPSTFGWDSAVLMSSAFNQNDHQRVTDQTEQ


Assays:
[1] = biological target: T1, McMYB12a; test: EMSA; LightShift Chemiluminescent EMSA Kit per manufacturer; 10 ug protein, 25 pmol biotin probe, 10- to 1000-fold competitor; buffer, salt, pH and temperature not stated; details: protein: recombinant; label: biotin; blunt
[2] = biological target: T2, McMYB12b; test: as above; details: protein: recombinant; label: biotin; blunt

Binder | binding result [1] | binding result [2]
proMcCHS probe (dsDNA) DNA 1: GCAACTCCTCCCAACTGTGTGGATCAAGCCACATACCCCGACTATTACT DNA 2: AGTAATAGTCGGGGTATGTGGCTTGATCCACACAGTTGGGAGGAGTTGC | binds | –
proMcANS probe (dsDNA) DNA 1: AGATCATTGCTCCAACTGGCTAAAATTAAGTGACCATTACTATAAT DNA 2: ATTATAGTAATGGTCACTTAATTTTAGCCAGTTGGAGCAATGATCT | binds | binds
proMcLAR2 probe (dsDNA) DNA 1: AAGTATGGTATAAACACAGACTAAGCCTCATTATCATATCCATATCAT DNA 2: ATGATATGGATATGATAATGAGGCTTAGTCTGTGTTTATACCATACTT | binds | binds
proMcANR1 probe (dsDNA) DNA 1: ATTCTGAGTACTGTAACCTAAGTTGAAGTTGAATAATTGACGTCGTC DNA 2: GACGACGTCAATTATTCAACTTCAACTTAGGTTACAGTACTCAGAAT | binds | binds
proMcANR2 probe (dsDNA) DNA 1: ATTGGGAGATATGTGCTCGTTTTAGAGTGCTTTTAAAATAACTGAAAAC DNA 2: GTTTTCAGTTATTTTAAAAGCACTCTAAAACGAGCACATATCTCCCAAT | binds | binds
proMcLAR1 probe (dsDNA) DNA 1: GGACAGAAATTATCCATACACCCTTTTCGTTAATGTTGCAAACTGAGT DNA 2: ACTCAGTTTGCAACATTAACGAAAAGGGTGTATGGATAATTTCTGTCC | no binding | binds
